{"source": "paper PMC8939814", "target": "CXCR2 (human) (UniProt P25025)", "sequence (P25025 whole entry)": "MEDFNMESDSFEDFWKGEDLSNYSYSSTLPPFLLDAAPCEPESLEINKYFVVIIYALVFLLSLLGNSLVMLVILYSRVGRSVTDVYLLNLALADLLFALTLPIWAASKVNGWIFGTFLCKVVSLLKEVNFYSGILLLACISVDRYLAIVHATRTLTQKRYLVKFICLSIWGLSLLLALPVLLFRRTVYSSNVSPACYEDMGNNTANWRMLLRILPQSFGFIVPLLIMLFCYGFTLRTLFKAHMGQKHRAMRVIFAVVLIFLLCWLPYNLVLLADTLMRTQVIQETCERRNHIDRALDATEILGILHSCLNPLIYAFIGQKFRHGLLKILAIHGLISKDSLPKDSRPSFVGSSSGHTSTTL"}
{"substance": "vCXCL1_(GT5 (4–97)), N-terminally truncated vCXCL1GT5 (domain or fragment)", "values": [{"measurement": "IP accumulation (G protein signaling, Gqi4myr) in transfected COS-7 cells, agonism at 1 μM (% of the efficacy of CXCL8 on CXCR2)", "value": 31}]}
{"substance": "vCXCL1GT5, the non-ELR CXC chemokine encoded by HCMV UL146 genotype 5 (Davis strain), wild type (1–97) (ligand)", "values": [{"measurement": "IP accumulation (G protein signaling, Gqi4myr) in transfected COS-7 cells, agonism at 1 μM (% of the maximal activity of CXCL8)", "value": 60}]}
{"substance": "vCXCL1_(GT5 (6–97)), N-terminally truncated vCXCL1GT5 (domain or fragment)", "values": [{"measurement": "IP accumulation (G protein signaling, Gqi4myr) in transfected COS-7 cells, agonism at 1 μM (% of the efficacy of CXCL8 on CXCR2)", "value": 29}]}
